Target: human CD40 on cells (HEK293 stable transfectants, HEK-Blue CD40 cells, human B cells, monocytic cells, dendritic cells) (human) (UniProt P25942)
Experiment: cell-based or functional assay

Chain of human CD40 on cells (HEK293 stable transfectants, HEK-Blue CD40 cells, human B cells, monocytic cells, dendritic cells) (human) (P25942 21-277 limits assumed): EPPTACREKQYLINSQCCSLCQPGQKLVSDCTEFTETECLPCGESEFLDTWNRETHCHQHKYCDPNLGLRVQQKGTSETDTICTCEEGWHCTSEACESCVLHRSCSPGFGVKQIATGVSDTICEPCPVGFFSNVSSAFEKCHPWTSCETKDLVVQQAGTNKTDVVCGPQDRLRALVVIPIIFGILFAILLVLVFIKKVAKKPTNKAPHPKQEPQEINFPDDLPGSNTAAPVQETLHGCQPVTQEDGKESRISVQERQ

Monocyte activation (THP1-Xblue, OD655): 0.12 OD655
moDC activation (IL-12p70): 139 pg/mL
Substance: anti-human CD40 G28-5 (mouse IgG1) (Biolegend) (antibody)
